The numbers were not newly measured in article PMC7561359, which cites them from elsewhere.

One may read the Kd as the constant that tells how readily two partners part at equilibrium.

This data set has as its target IFNAR1 (Homo sapiens) (UniProt P17181).
Chain of UniProt P17181 (P17181 28-436): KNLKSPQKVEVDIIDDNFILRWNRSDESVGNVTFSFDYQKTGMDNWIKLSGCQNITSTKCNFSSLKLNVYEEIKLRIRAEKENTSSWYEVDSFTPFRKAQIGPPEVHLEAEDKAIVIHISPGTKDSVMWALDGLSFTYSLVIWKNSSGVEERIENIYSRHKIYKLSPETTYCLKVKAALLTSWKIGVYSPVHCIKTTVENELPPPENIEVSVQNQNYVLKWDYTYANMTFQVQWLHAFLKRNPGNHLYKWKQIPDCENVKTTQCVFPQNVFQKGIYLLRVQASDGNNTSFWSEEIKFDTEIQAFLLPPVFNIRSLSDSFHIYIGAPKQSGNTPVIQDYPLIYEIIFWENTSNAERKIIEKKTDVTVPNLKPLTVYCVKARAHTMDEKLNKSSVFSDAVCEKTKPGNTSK

For the substance IFNβ (from UniProt P01574), the Kd is 100 nM.
